From paper PMC7959530 come the findings set out here.

The target of the assay is asialofetuin (UniProt P12763). Briefly: ELISA.
Sequence of UniProt P12763 (P12763 19-359): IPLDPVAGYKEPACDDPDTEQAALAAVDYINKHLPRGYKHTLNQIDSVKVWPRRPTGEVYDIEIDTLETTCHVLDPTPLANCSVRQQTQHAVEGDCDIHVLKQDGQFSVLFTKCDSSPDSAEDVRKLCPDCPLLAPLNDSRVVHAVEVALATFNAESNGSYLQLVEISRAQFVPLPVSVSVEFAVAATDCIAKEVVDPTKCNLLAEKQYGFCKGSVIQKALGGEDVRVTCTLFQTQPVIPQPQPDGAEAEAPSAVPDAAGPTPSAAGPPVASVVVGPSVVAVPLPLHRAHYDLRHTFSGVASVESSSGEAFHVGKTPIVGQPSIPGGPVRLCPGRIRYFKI

For the substance “PX-Gal3_(Δ116) (fusion protein of APEX2 and galectin-3 lacking the N-terminal domain) (domain or fragment)”, the concentration for a half-maximal effect (EC50) was found to be 140 nM.
